The target in this assay is cis-3-chloroacrylic acid dehalogenase (native). The assay is described as follows: crystal structure.

As to “cis-3-chloroacrylic acid dehalogenase (native) (enzyme)”, the stoichiometry N (in general, a count of units in the complex or per binding partner) was found to be 3.

The values are drawn from publication PMC3025062.
